The source of these data is publication PMC8857482.

The labels stand for the following.
B1: 54 bp target dsDNA (dsDNA)
DNA 1: GGAAGCCATCCAGGTAGACGCGGACATCAAGCCCGCCGTGAAGGTGCAGCTGCT
DNA 2: AGCAGCTGCACCTTCACGGCGGGCTTGATGTCCGCGTCTACCTGGATGGCTTCC

For the first series, the target named is T1, Csy complex (type I-F surveillance complex: Cas8f, Cas5f, Cas7f, Cas6f + crRNA) (Pseudomonas aeruginosa, UniProt Q02ML9;Q02MM0;Q02MM1;Q02MM2 1-434;1-327;1-342;1-187).
T1 sequence 1: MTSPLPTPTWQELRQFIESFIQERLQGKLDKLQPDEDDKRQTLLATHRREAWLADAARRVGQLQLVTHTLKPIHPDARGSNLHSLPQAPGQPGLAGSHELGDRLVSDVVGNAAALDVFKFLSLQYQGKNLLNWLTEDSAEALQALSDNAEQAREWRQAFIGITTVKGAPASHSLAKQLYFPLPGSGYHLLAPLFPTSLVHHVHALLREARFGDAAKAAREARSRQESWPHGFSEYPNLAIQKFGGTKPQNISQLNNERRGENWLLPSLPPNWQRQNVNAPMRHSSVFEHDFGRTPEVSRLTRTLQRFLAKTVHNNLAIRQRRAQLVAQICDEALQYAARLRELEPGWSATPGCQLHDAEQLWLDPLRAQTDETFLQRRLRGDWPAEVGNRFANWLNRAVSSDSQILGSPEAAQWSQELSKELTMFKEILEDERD
T1 sequence 2: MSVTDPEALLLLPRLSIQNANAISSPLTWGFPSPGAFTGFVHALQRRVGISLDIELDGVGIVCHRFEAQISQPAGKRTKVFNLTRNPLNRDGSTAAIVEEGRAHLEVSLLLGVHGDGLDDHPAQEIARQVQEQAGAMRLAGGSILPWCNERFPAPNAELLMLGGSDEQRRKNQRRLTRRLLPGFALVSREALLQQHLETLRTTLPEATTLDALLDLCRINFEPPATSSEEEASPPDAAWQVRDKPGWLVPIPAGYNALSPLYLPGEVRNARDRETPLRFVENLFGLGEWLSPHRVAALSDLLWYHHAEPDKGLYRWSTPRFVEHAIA
T1 sequence 3: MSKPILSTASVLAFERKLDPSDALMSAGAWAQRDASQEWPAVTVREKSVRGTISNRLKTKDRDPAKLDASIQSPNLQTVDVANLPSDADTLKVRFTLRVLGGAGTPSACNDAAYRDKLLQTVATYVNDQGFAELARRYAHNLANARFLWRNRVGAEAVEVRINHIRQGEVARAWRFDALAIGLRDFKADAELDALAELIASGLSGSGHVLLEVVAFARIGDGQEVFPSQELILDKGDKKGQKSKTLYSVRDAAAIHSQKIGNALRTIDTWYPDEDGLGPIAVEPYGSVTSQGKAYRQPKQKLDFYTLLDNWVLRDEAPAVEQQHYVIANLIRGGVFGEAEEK
T1 sequence 4: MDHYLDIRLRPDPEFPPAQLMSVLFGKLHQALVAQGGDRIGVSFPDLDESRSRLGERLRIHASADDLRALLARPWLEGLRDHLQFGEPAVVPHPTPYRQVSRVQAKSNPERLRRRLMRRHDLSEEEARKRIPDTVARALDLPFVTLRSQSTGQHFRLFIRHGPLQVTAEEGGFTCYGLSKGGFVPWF
Description: EMSA.
B1: the binding result is on record as “binds”.

A further series concerns the target Csy complex with Cas7f (K58A/K60A) (Pseudomonas aeruginosa) (UniProt Q02ML9). The series can be described thus: MST.
In the case of AcrIF13 (natural protein), the Kd turned out to be 34.2 nM.

For another series, the target named is Csy complex with Cas8f (N250D) (Pseudomonas aeruginosa) (UniProt Q02ML9). Description: MST.
AcrIF13 (natural protein) had a dissociation constant Kd of 647 nM. This counts as sub-micromolar.

A further series deals with type I-F CRISPR-Cas surveillance complex (Csy complex) (Pseudomonas aeruginosa) (UniProt Q02ML9). Description: MST.
AcrIF13 D45K/D46K (natural protein) displayed a Kd of 6.22 nM. This counts as single-digit nanomolar.

Regarding AcrIF13 D21K/E22K (natural protein), the Kd turned out to be 29.8 nM.

For the molecule AcrIF13 D43K/D44K (natural protein), the Kd turned out to be 1.85 nM.

In the case of AcrIF13 E57K (natural protein), the Kd was determined as 5.39 nM. This Kd is about 2.9-fold higher than that of the molecule before.

On to AcrIF13 E40K (natural protein), for which the dissociation constant Kd stood at 5.17 nM. The Kd values of the last two molecules are within 1.5-fold of each other.

“AcrIF13 E82K/E83K/D84K (natural protein)” returned a Kd of 7.22 nM.

Turning to AcrIF13 D102K (natural protein), the Kd was determined as 9.21 nM.

AcrIF13 E18K (natural protein) registered a Kd of 2.55 nM.

As to AcrIF13 E50K (natural protein), the Kd was found to be 18.1 nM.

The molecule AcrIF13 E97K (natural protein) came in with a Kd of 14.3 nM.

AcrIF13 D63K (natural protein) returned a Kd of 24.6 nM.

With AcrIF13 E10K (natural protein), the Kd turned out to be 22.3 nM.

Regarding AcrIF13 D113K (natural protein), the Kd came to 67.7 nM.

With AcrIF13 (natural protein), the Kd came out at 1.51 nM.
